Measured values published in US20050272099A1.

Molecular target: androgen receptor (UniProt P10275)
Assay: cell-based or functional assay

Chain of UniProt P10275 (P10275 whole entry): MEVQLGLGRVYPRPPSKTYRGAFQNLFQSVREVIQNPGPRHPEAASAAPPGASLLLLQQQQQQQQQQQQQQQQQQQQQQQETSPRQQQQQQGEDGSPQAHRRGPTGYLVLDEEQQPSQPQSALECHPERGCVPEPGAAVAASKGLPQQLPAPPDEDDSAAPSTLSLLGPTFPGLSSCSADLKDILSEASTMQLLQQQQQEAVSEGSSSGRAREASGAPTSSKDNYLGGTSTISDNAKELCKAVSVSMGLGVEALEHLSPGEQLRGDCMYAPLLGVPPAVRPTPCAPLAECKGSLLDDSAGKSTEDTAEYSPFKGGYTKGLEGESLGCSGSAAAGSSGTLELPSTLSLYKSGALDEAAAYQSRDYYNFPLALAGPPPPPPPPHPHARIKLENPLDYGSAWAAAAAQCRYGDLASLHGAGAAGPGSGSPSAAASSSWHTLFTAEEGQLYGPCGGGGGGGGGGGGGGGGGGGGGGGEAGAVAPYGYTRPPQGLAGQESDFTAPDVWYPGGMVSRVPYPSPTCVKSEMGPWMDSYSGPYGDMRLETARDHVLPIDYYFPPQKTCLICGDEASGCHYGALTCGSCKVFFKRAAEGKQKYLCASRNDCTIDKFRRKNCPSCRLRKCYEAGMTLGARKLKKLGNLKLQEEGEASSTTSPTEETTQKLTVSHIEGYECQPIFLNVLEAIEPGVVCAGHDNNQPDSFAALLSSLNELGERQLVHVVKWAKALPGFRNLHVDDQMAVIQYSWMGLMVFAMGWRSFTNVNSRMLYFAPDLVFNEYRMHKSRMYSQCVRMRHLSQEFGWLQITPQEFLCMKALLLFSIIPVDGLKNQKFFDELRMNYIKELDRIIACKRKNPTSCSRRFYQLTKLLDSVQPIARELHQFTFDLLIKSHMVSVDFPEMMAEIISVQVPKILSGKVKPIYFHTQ

androgen receptor complex-associated protein (from UniProt Q58WW2 1-860)
luciferase activity, AFP promoter (androgen responsive element) reporter in G2 cells, relative to the control reporter with mutated ARE: 3 to 4 fold
